Assay [1] concerns the target T1, recombinant human CEACAM5 Extra Cellular Domain (ECD) soluble protein (human, UniProt P06731 35-685, biotinylated in the competition ELISA of Example 4).
T1 construct: extracellular domain; also called rec. hCEACAM5; recombinant soluble human CEACAM5; not shown: C-terminal Avitag and hexa-histidine tag, or a human Fc or a mouse Fc region; which construct stood in each assay is not
T1 sequence (looked up): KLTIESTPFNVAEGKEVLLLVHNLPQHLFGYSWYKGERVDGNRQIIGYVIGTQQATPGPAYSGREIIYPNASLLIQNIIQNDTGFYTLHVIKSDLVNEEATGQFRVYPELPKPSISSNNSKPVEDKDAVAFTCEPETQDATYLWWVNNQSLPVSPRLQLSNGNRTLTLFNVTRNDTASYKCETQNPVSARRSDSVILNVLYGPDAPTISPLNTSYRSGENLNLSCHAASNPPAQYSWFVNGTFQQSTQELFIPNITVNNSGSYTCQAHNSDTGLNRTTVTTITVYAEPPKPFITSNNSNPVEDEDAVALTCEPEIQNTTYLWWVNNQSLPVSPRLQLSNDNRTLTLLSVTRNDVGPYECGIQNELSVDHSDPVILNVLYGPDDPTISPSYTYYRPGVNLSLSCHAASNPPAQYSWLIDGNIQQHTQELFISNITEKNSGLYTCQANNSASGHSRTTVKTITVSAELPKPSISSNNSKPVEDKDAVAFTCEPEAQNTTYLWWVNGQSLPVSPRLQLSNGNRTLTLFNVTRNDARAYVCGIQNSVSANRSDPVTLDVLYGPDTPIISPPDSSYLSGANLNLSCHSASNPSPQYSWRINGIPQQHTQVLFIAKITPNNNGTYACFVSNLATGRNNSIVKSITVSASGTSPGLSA
Description: BLI (Octet), from Table 2. On the procedure: The affinity of the anti-human CEACAM5 arm of the CD47×CEACAM5 bispecific antibodies of the invention for recombinant soluble human CEACAM5 was determined using the Bio-Layer Interferometry (BLI) technology. An OctetRED96 instrument and Protein A biosensors were used (Sartorius). The measurement was performed at 30° C. After hydration, pre-conditioning and a baseline step in Kinetic buffer (PBS, 0.002% Tween 20, 0.01% BSA, Kathon; Sartorius), biosensors were loaded for 5 min with the κλ body at 0.5 μg/mL in Kinetic buffer. Then, biosensors were dipped into a serial dilution of recombinant human CEACAM5 Extra Cellular Domain (ECD) soluble protein (produced in house), starting at 50 nM with a 2× dilution factor. The association and dissociation phases were monitored for 600 seconds each. Biosensors were regenerated using 10 mM glycine pH 1.7. A standard acquisition rate was applied (5.0 Hz, averaging by 20). Curves were processed with a reference well subtraction, a Y alignment on the baseline, without interstep correction. The affinity was measured applying a 1:1 global fitting model on the full association and dissociation steps. The binding affinity (KD) of the bispecific antibodies of the invention to recombinant human CD47 was determined by the same experimental procedure.
The affinity of the anti-human CEACAM5 arms of the CD47×CEACAM5 bispecific antibodies of the invention for recombinant soluble human CEACAM3 was determined using the Bio-Layer Interferometry (BLI) technology and an OctetRED96 instrument. HIS1K biosensors (Sartorius), loaded with an anti-His tag antibody, were used to capture his-tagged recombinant huCEACAM3 (R&D Systems, #9868-CM). The measurement was performed at 30° C. After hydration, pre-conditioning and a baseline step in Kinetic buffer (PBS, 0.002% Tween 20, 0.01% BSA, Kathon; Sartorius), biosensors were loaded for 5 min with the recombinant huCEACAM3 at 5 μg/mL in Kinetic buffer. Then, biosensors were dipped into a serial dilution of k bodies, starting at 667 nM with a 2× dilution factor. The association and dissociation phases were monitored for 60 seconds and 120 seconds respectively. Biosensors were regenerated using 10 mM glycine pH 1.7.
On the technique in general: In BLI a coated tip is dipped into the sample, and binding shifts an interference pattern.

In assay [2] the target is T2, human CEACAM5 on CEACAM5-expressing cancer cell lines (human, UniProt P06731 35-685).
T2 construct: whole, on cells; also called CEACAM5 on SK-CO-1, MKN-45, HPAF-II, SNU-C1, Ls174T, LoVo cells
T2 sequence (looked up): T1 sequence (looked up)
Put plainly: flow cytometry on MKN-45 cells (carry CEACAM5 and CD47), PE anti-human IgG Fc. How it is done: The binding of CD47×CEACAM5 bispecific antibodies was tested on CEACAM5-expressing human gastric adenocarcinoma cells (e.g. MKN-45), on CEACAM5-expressing human colorectal cancer cells (SK-CO-1, SNU-C1, Ls174T, and LoVo), and on CEACAM5-expressing pancreatic adenocarcinoma cells (HPAF-II).
Cells were harvested, counted, checked for viability and resuspended at 3×10⁶ cells/ml in FACS buffer (PBS 2% BSA, 0.1% NaN3). 100 μl of the cell suspension was distributed in V-bottom 96-well plates (3×10⁵ cells/well). The supernatant was removed by centrifugation 3 minutes at 4° C., 1300 rpm. Increasing concentrations of the antibody according to the invention were then added into the wells and incubated for 15 minutes at 4° C. Cells were washed twice with cold FACS buffer and re-incubated for further 15 minutes at 4° C. with the PE (R-phycoerythrin)-conjugated mouse anti-human IgG Fc secondary antibody (SouthernBiotech, pre-diluted 1:100 in FACS buffer). Cells were washed twice with cold FACS buffer and resuspended in 300 μl FACS buffer with 1:15000-diluted SytoxBlue (Life Technologies). Fluorescence, specifically mean fluorescence […] (MFI), was determined using a Cytoflex […] flow cytometer. Binding curves and […] and Emax values were obtained and calculated using GraphPad Prism7 software.
On the technique in general: In flow cytometry, cells or beads pass a laser one at a time.

Assay [3] concerns the target T3, human CD47 expressed at the surface of MKN-45 cells (human, UniProt Q08722 19-323).
T3 construct: whole, on cells; MKN-45 cells express both CD47 and CEACAM5; also called hCD47
Put plainly: CD47/SIRPα blocking assay on MKN-45 cells (carry CD47 and CEACAM5), imaging of bound SIRPα-mouseFc. The text has this: The cell-based assay monitoring the interaction of soluble SIRPa with human CD47 expressed at the surface of MKN-45 cells as described below was used for the detection of the blocking activity. Concentration-response experiments with bispecific antibodies according to the invention allowed determination of inhibition curves (see FIG. 4) and of IC50 values (see Table 12).
MKN-45 cancer cells, expressing both CD47 and CEACAM5, were stained with CFSE violet to allow the imaging system (CX5) to detect the cells. Briefly, 3'000 stained MKN-45 cells per well were seeded in a 384 optical well plate (Costar) and incubated for 50 minutes with increased concentrations of bispecific antibodies of the invention ([…] to 333 nM, in quadruplicates). Then, a fixed concentration of SIRPα-mouseFc premixed with anti-mouse IgG-Fc AF647 coupled antibody (Jackson Immunoresearch diluted 1:2000) was added at 50 ng/mL final. After an incubation of 3 hours and 30 minutes, images of the fluorescence signals emitted by the detected bound SIRPa on the plates were acquired with the imaging system (CX5, Thermo Fisher). Fluorescence signals (mean fluorescence intensity MFI) were plotted according to the dose range tested, and IC50 was calculated by the software (Prism, GraphPad).

The EC50 is the concentration that produces a half-maximal response. A higher EC50 goes with lower potency in that assay. The term IC50 denotes the concentration needed to halve the response being measured.

Changes are numbered by the printed parent chain.

T3 sequence (Q08722 19-323): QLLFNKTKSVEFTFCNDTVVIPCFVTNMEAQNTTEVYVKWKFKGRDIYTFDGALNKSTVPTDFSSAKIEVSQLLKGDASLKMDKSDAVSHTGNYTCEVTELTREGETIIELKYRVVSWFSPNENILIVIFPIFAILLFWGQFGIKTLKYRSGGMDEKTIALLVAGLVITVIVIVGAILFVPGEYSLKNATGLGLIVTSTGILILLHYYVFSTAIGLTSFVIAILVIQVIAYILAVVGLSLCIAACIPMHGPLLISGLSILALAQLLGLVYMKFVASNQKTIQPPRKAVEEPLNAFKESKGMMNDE

B1: K2AC84 (bispecific antibody, human IgG1, kappa, lambda)
heavy: not shown
light 1: QSVLTQPPSVSAAPGQKVTISCSGSSSNIGIGLVSWYQQLPGTAPKLLIYNVNTRPSGIPDRFSGSKSGTSATLGITGLQTGDEADYYCGTWDFSYRVDFGGGTKLTVLGQPKAAPSVTLFPPSSEELQANKATLVCLISDFYPGAVTVAWKADSSPVKAGVETTTPSKQSNNKYAASSYLSLTPEQWKSHRSYSCQVTHEGSTVEKTVAPTECS
light 2: not shown
notes: Kappa-lambda body; also called CD47xCEACAM5 bispecific antibody K2AC84; AC84 (CEACAM5 arm)
For the molecule B1, the “fold higher binding affinity (KD) compared to K2AC22” value in assay [1] came out at 46 fold. In assay [2], the response was half-maximal at 7.3 nM (EC50) and the “Emax (MFI)” value amounted to 1.52e+06 MFI. Moreover, the IC50 in assay [3] was 0.04 nM.

B2: K2AC22 (bispecific antibody, human IgG1, kappa, lambda)
heavy: not shown
light 1: B1 light 1 with G30A, I31N, L33I, N51F, V52D, T54L, R97G, V98I, D99V
light 2: not shown
notes: Kappa-lambda body, human IgG1, one arm for CEACAM5 and one for CD47; comparison antibody from WO2019234576; also called state of the art bispecific CEAxCD47 antibody K2AC22; CD47xCEACAM5 bispecific antibody K2AC22
For B2, in assay [2], the EC50 came to 21.3 nM and the “Emax (MFI)” value was 1.16e+06 MFI. Besides, the concentration for half-maximal inhibition (IC50) in assay [3] was 1.2 nM.

B3: K2AC100 (bispecific antibody, human IgG1, kappa, lambda)
heavy: not shown
light 1: B1 light 1 with I31Y, V52G, T54I
light 2: not shown
notes: Kappa-lambda body; also called CD47xCEACAM5 bispecific antibody K2AC100; AC100 (CEACAM5 arm)
With B3, the “fold higher binding affinity (lower KD) compared to K2AC22” value in assay [1] is 25 fold. In assay [2], a half-maximal response (EC50) required 8.7 nM and the “Emax (MFI)” value stood at 1.3e+06 MFI. Also, in assay [3], the IC50 came to 0.09 nM.

For the origin of these results see patent publication US20220195067A1 (LAMKAP BIO BETA, published 2022).
